Values of other authors, collected in article PMC10830413.
Like-named read-outs stand apart in the source and are kept apart here.

What was measured:
LPHN3 [1] = target: LPHN3 (UniProt Q9HAR2)
LPHN3 [2] = target: LPHN3 (UniProt Q9HAR2); remark: listed apart in the source

Sequence of UniProt Q9HAR2 (Q9HAR2 20-862): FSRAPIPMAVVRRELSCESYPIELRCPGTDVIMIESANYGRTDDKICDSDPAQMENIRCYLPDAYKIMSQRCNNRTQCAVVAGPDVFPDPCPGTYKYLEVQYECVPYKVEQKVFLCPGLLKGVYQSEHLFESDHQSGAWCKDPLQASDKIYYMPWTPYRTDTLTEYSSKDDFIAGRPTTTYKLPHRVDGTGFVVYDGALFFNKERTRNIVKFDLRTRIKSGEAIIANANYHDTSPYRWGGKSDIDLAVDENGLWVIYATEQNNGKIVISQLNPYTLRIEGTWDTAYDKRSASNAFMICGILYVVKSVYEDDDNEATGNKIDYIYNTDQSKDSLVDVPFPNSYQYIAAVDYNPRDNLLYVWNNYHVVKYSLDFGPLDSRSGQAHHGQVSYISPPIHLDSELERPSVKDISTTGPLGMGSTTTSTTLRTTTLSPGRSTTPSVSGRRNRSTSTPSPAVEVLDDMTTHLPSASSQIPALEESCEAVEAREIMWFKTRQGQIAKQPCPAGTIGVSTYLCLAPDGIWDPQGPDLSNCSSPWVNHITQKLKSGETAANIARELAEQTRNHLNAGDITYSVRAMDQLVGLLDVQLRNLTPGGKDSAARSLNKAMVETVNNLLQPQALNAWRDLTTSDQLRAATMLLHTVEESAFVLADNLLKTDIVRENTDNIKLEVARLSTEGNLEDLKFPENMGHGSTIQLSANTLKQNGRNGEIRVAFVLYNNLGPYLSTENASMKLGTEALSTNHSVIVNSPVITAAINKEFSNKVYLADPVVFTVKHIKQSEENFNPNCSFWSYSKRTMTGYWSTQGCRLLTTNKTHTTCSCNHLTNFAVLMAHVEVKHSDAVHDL

Row | Kd (LPHN3 [1]) | Kd (LPHN3 [2]) | Substance
1 | 15 nM |  | FLRT3 (from UniProt Q9NZU0)
2 |  | 500 nM | TENM2 (from UniProt Q9NT68)
